Data on two molecules can be found in patent US20030008334A1 (published 2003).

Data set [1] addresses MBP-afadin-PDZ (MBP-fusion protein of the PDZ domain of afadin) (UniProt O35889). The experiment in a line: affinity chromatography on MBP-afadin-PDZ amylose beads, eluate on SDS-PAGE.
Data set [2] deals with the molecule itself. The experiment in a line: immunofluorescence microscopy of co-cultured nectin-1α-L and nectin-2α-L cells. The protocol: Chemical cross-linking was done according to the method described in references (Blood 92: 4602-4611, 1998; J. Biol. Chem., 275: 613-618, 2000). Immunoprecipitation was performed according to the method described in references (J. Cell Biol., 145: 539-549, 1999; J. Biol. Chem., 275: 613-618, 2000). Immunofluorescence microscopy of cultured cells was done according to the method described in references (J. Cell Biol., 139: 517-528, J. Cell Biol., 145: 539-549, 1999; J. Biol. Chem., 275: 613-618, 2000). Protein concentrations were determined with bovine serum albumin as a control, according to the method described in a reference (Anal. Biochem., 72: 248-254, 1976). SDS-PAGE was done as described (Nature, 227: 680-685, 1970).
When nectin-1α-L cells were co-cultured with nectin-2α-L cells, nectin-1α and nectin-2α were localized in the cell-cell contact sites of the respective L cells (FIG. 5, A1-A3). However, neither nectin-1α or nectin-2α was detected in the contact sites of the two types of the L cells. In contrast, when nectin-3α-L cells were co-cultured with nectin-1α-L cells, nectin-3α and nectin-1α coexisted in the cell-cell contact site of the two types of the L cells (FIG. 5, B1-B3). The same result was obtained in co-culture of nectin-3α-L cells and nectin-2α-L cells (FIG. 5, C1-C3).

As for “GST-nectin-3α-CP (GST-fusion protein of the cytoplasmic region of nectin-3α) (from UniProt Q9JLB9 433-549)”, the stoichiometry of binding (nectin-3α:afadin ratio) in data set [1] amounted to 1.

B1: Full-length human nectin-1α expressed on L cells (nectin-1α-L cells) (receptor, UniProt Q15223 31-517, looked up)
chain: QVVQVNDSMYGFIGTDVVLHCSFANPLPSVKITQVTWQKSTNGSKQNVAIYNPSMGVSVLAPYRERVEFLRPSFTDGTIRLSRLELEDEGVYICEFATFPTGNRESQLNLTVMAKPTNWIEGTQAVLRAKKGQDDKVLVATCTSANGKPPSVVSWETRLKGEAEYQEIRNPNGTVTVISRYRLVPSREAHQQSLACIVNYHMDRFKESLTLNVQYEPEVTIEGFDGNWYLQRMDVKLTCKADANPPATEYHWTTLNGSLPKGVEAQNRTLFFKGPINYSLAGTYICEATNPIGTRSGQVEVNITEFPYTPSPPEHGRRAGPVPTAIIGGVAGSILLVLIVVGGIVVALRRRRHTFKGDYSTKKHVYGNGYSKAGIPQHHPPMAQNLQYPDDSDDEKKAGPLGGSSYEEEEEEEEGGGGGERKVGGPHPKYDEDAKRPYFTVDEAEARQDGYGDRTLGYQYDPEQLDLAENMVSQNDGSFISKKEWYV
notes: whole, on cells
For the molecule B1, in data set [2], the binding result was “binds”.
